According to patent US20150337037A1 (MSM PROTEIN TECHNOLOGIES, published 2015):

Tests used:
[1] = biological target: T1, human chemokine receptor CCR6 (human, UniProt P51684 1-374); assay: flow cytometry on cells expressing the target, IgG1 titration (repeat of Table 2)
T1 construct: whole, on cells; gene was synthesized (codon-optimized); a C-terminal tag may be present on the expressed protein; also called CCR6 human; human CCR6
T1 sequence (looked up): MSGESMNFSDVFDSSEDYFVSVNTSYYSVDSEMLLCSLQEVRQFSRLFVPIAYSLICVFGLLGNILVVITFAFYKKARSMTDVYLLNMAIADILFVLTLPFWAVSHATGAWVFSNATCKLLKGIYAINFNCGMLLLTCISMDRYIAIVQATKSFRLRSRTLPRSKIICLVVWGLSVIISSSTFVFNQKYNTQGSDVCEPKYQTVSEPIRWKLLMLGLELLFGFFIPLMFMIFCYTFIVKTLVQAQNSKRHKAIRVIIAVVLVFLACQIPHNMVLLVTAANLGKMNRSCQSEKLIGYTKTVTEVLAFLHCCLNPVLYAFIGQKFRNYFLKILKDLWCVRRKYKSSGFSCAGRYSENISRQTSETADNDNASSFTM

cynomolgus monkey CCR6 [2] = biological target: T2, cynomolgus monkey CCR6 (cynomolgus monkey (Macaca Fascicularis)); assay: as above
T2 construct: whole, on cells; gene derived from a total RNA library; also called CCR6 cyno; cyno CCR6

mouse CCR6 [3] = biological target: T3, mouse CCR6 (mouse, UniProt O54689 1-367); assay: flow cytometry on CHO cells expressing mouse CCR6
T3 construct: whole, on cells; gene derived from a cDNA library; also called CCR6 mouse
T3 sequence (looked up): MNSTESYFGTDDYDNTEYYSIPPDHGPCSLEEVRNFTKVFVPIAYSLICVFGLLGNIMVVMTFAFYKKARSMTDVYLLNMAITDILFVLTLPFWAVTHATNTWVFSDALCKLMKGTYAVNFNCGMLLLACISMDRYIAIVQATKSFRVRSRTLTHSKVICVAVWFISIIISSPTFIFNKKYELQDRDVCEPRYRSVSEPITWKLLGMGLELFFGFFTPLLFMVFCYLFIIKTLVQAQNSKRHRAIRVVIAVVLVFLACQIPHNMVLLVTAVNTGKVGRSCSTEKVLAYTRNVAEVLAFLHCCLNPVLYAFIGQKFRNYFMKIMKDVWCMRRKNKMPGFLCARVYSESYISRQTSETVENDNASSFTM

[4] = biological target: T1, human chemokine receptor CCR6; assay: flow cytometry on cells expressing the target, IgG1 titration, anti-human Fc-PE
cynomolgus monkey CCR6 [5] = biological target: T2, cynomolgus monkey CCR6; assay: as above
mouse CCR6 [6] = biological target: T3, mouse CCR6; assay: flow cytometry on cells expressing the target, IgG1 titration (repeat of Table 2)
mouse CCR6 [7] = biological target: T3, mouse CCR6; assay: flow cytometry on cells expressing the target, IgG1 titration, anti-human Fc-PE
mouse CCR6 [8] = biological target: T3, mouse CCR6; assay: flow cytometry on cells expressing mouse CCR6
[9] = biological target: T1, human chemokine receptor CCR6; assay: flow cytometry on cells expressing the target, antibody titration
cynomolgus monkey CCR6 [10] = biological target: T2, cynomolgus monkey CCR6; assay: as above
human CXCR6 = biological target: T4, human CXCR6 (human, UniProt O00574 1-342); assay: flow cytometry on GPCR-expressing cell panel
T4 construct: whole, on cells
T4 sequence (O00574 whole entry): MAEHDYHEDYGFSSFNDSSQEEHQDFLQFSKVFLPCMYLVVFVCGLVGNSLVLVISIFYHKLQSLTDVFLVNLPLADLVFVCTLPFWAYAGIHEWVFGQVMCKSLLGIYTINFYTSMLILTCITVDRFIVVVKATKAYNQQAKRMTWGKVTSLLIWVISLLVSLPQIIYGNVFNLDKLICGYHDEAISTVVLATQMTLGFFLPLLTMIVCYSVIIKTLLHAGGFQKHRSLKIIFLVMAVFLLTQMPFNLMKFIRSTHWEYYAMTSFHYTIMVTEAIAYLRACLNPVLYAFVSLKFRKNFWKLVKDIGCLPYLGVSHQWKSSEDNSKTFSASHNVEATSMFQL

[11] = biological target: T1, human chemokine receptor CCR6; assay: cell-based or functional assay
[12] = biological target: T1, human chemokine receptor CCR6; assay: cell-based or functional assay; remark: listed apart in the source
[13] = biological target: T1, human chemokine receptor CCR6; assay: flow cytometry on R1610 cells expressing human CCR6, IgG1 titration, anti-human Fc-PE

B1: MSM-R619 IgG1 (antibody, V domains shown)
VH: EVQLLESGGGLVQPGGSLRLSCAASGFTFSNYYIHWVRQAPGKGLEWVSLISPGGSTTYYADSVKGRFTISRDNSKNTLYLQMNSLRAEDTAVYYCARGRTWWSTYYSGIDYWGQGTLVTVSS
VL: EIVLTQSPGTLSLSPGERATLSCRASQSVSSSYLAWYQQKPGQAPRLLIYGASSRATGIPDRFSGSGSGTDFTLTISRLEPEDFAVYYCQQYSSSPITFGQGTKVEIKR
notes: Fully human IgG1; also called MSM R19
[1]
  EC50: 1.7 nM
Cynomolgus monkey CCR6 [2]
  EC50: 2 nM
Mouse CCR6 [3]
  binding result: no binding
[4]
  EC50: 1.7 nM
Cynomolgus monkey CCR6 [5]
  EC50: 2 nM

B2: MSM-R612 IgG1 (antibody, V domains shown)
VH: EVQLLGSGGGLVQPGGSLRLSCAASGFTFTTYYMHWVRQAPGKGLEWVSLISPNAGNTYYADSVKGRFTISRDNSKNTLYLQMNSLRAEDTAVYYCARGRSRAGTSGMDYWGQGTLVTVSS
VL: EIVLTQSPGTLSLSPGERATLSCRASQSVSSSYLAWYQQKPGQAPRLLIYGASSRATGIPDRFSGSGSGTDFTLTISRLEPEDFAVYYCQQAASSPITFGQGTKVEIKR
notes: Fully human IgG1
[1]
  EC50: 1 nM
Mouse CCR6 [6]
  EC50: 1.5 nM
Cynomolgus monkey CCR6 [2]
  EC50: 1.6 nM
[4]
  EC50: 1 nM
Mouse CCR6 [7]
  EC50: 1.5 nM
Cynomolgus monkey CCR6 [5]
  EC50: 1.6 nM

B3: MSM-R617 IgG1 (antibody, V domains shown)
VH: EVQLLESGGGLVQPGGSLRLSCAASGFTFSGYAMHWVRQAPGKGLEWVSSIGSRRGFTSYADSVKGRFTISRDNSKNTLYLQMNSLRAEDTAVYYCARSYAYQYRGLDYWGQGTLVTVSS
VL: EIVLTQSPGTLSLSPGERATLSCRASQSVSSSYLAWYQQKPGQAPRLLIYGASSRATGIPDRFSGSGSGTDFTLTISRLEPEDFAVYYCQQRSSVTFGQGTKVEIKR
notes: Fully human IgG1; also called MSMR617.46
[1]
  EC50: 1.5 nM
Cynomolgus monkey CCR6 [2]
  EC50: 1.9 nM
[4]
  EC50: 1.5 nM
Cynomolgus monkey CCR6 [5]
  EC50: 1.9 nM

B4: MSM-R633 (antibody, V domains shown)
VH: EVQLLESGGGLVQPGGSLRLSCAASGFTFTSSYMAWVRQAPGKGLEWVSSIAPSSGSTYYADSVKGRFTISRDNSKNTLYLQMNSLRAEDTAVYYCARSRWEWYYHSSHGLDYWGQGTLVTVSS
VL: EIVLTQSPGTLSLSPGERATLSCRASQSVSSSYLAWYQQKPGQAPRLLIYGASSRATDIPDRFSGSGSGTDFTLTISRLEPEDFAVYYCQQSYSDPITFGQGTKVEIK
Mouse CCR6 [8]
  binding result: no binding
[9]
  EC50: 7 nM
Cynomolgus monkey CCR6 [10]
  EC50: 7.5 nM

B5: MSM-R621 IgG1 (antibody, V domains shown)
VH: EVQLLESGGGLVQPGGSLRLSCAASGFTFTTYYMHWVRQAPGKGLEWVSGIGPRGSWTGYADSVKGRFTISRDNSKNTLYLQMNSLRAEDTAVYYCARGRALVSNYSGLDYWGQGTLVTVSS
VL: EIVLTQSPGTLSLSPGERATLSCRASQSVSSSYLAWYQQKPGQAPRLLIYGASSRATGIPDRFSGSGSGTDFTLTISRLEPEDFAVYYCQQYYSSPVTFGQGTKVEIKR
notes: Fully human IgG1
Human CXCR6
  binding result: binds
[1]
  EC50: 1.5 nM
Mouse CCR6 [6]
  EC50: 30 nM
Cynomolgus monkey CCR6 [2]
  EC50: 2.2 nM
[4]
  EC50: 1.5 nM
Mouse CCR6 [7]
  EC50: 30 nM
Cynomolgus monkey CCR6 [5]
  EC50: 2.2 nM

B6: MSM-R606 IgG1 (antibody)
heavy: not shown
light: EIVLTQSPGTLSLSPGERATLSCRASQSVSSSYLAWYQQKPGQAPRLLIYGASSRATGIPDRFSGSGSGTDFTLTISRLEPEDFAVYYCQQSSYSPITFGQGTKVEIKRTVAAPSVFIFPPSDEQLKSGTASVVCLLNNFYPREAKVQWKVDNALQSGNSQESVTEQDSKDSTYSLSSTLTLSKADYEKHKVYACEVTHQGLSSPVTKSFNRGEC
notes: Fully human IgG1
[1]
  EC50: 1.4 nM
Mouse CCR6 [6]
  EC50: 0.7 nM
Cynomolgus monkey CCR6 [2]
  EC50: 1.7 nM
[11]
  IC50, nM CCL20-Ca-Flux: 8.3 nM
[4]
  EC50: 1.4 nM
Mouse CCR6 [7]
  EC50: 0.7 nM
Cynomolgus monkey CCR6 [5]
  EC50: 1.7 nM
[12]
  Ca-Flux IC50, nM CCR6/CCL20: 8.3 nM

B7: MSM-R608 IgG1 (antibody)
heavy: not shown
light: EIVLTQSPGTLSLSPGERATLSCRASQSVSSSYLAWYQQKPGQAPRLLIYGASSRATGIPDRFSGSGSGTDFTLTISRLEPEDFAVYYCQQSYYAPVTFGQGTKVEIKRTVAAPSVFIFPPSDEQLKSGTASVVCLLNNFYPREAKVQWKVDNALQSGNSQESVTEQDSKDSTYSLSSTLTLSKADYEKHKVYACEVTHQGLSSPVTKSFNRGEC
notes: Fully human IgG1
[1]
  EC50: 2 nM
Mouse CCR6 [6]
  EC50: 1 nM
Cynomolgus monkey CCR6 [2]
  EC50: 2.5 nM
[4]
  EC50: 2 nM
Mouse CCR6 [7]
  EC50: 1 nM
Cynomolgus monkey CCR6 [5]
  EC50: 2.5 nM

B8: MSM-R607 IgG1 (antibody, V domains shown)
VH: EVQLLESGGGLVQPGGSLRLSCAASGFTFSSYYMHWVRQAPGKGLEWVSLIAPANSDTYYADSVKGRFTISRDNSKNTLYLQMNSLRAEDTAVYYCARSSYTRHSSKRGMDYWGQGTLVTVSS
VL: EIVLTQSPGTLSLSPGERATLSCRASQSVSSSYLAWYQQKPGQAPRLLIYGASSRATGIPDRFSGSGSGTDFTLTISRLEPEDFAVYYCQQAAYSPITFGQGTKVEIKR
notes: Fully human IgG1
Human CXCR6
  binding result: binds
[1]
  EC50: 1.2 nM
Mouse CCR6 [6]
  EC50: 1 nM
Cynomolgus monkey CCR6 [2]
  EC50: 2 nM
[11]
  IC50, nM CCL20-Ca-Flux: 13.5 nM
[4]
  EC50: 1.2 nM
Mouse CCR6 [7]
  EC50: 1 nM
Cynomolgus monkey CCR6 [5]
  EC50: 2 nM
[12]
  Ca-Flux IC50, nM CCR6/CCL20: 13.5 nM

B9: MSM-R609 IgG1 (antibody, V domains shown)
VH: EVQLLESGGGLVQPGGSLRLSCAASGFTFTASYMSWVRQAPGKGLEWVSNISPKYGNTYYADSVKGRFTISRDNSKNTLYLQMNSLRAEDTAVYYCARSIRSAKYSYYGIDYWGQGTLVTVSS
VL: EIVLTQSPGTLSLSPGERATLSCRASQSVSSSYLAWYQQKPGQAPRLLIYGASSRATGIPDRFSGSGSGTDFTLTISRLEPEDFAVYYCQQSASAPVTFGQGTKVEIKR
notes: Fully human IgG1
[1]
  EC50: 1 nM
Cynomolgus monkey CCR6 [2]
  EC50: 1.6 nM
[4]
  EC50: 1 nM
Cynomolgus monkey CCR6 [5]
  EC50: 1.6 nM

B10: MSM-R615 IgG1 (antibody, V domains shown)
VH: EVQLLESGGGLVQPGGSLRLSCAASGFTFSSYYMHWVRQTPGKGLEWVSIISPWSSSTYYADSVKGRFTISRDNSKNTLYLQMNSLRAEDTAVYYCARSSYSWGESYKRAIDYWGQGTLVTVSS
VL: EIVLTQSPGTLSLSHGERATLSCRASQSVSSSYLAWYQQKPGQAPRLLIYGASSRATGIPDRFSGSGSGTDFTLTISRLEPEDFAVYYCQQSYYSPVTFGQGTKVEIKR
notes: Fully human IgG1
[13]
  EC50: 1 nM
[1]
  EC50: 1 nM
Cynomolgus monkey CCR6 [2]
  EC50: 2.5 nM
Mouse CCR6 [3]
  binding result: no binding
Cynomolgus monkey CCR6 [5]
  EC50: 2.5 nM

B11: MSM-R604 IgG1 (antibody, V domains shown)
VH: EVQLLESGGGLVQPGGSLRLSCAASGFTFTNYSMHWVRQAPGKGLEWVSLISPYSSSTYYADSMKGRFTISRDNSKNTLYLQMNSLRAEDTAVYYCARGRYYGAYSYPGFDYWGQGTLVTVSS
VL: EIVLTQSPGTLSLSPGERATLSCRASQSVSSSYLAWYQQKPGQAPRLLIYGASSRATGIPDRFSGSGSGTDFTLTISRLEPEDFAVYYCQQSAKNPLTFGQGTKVEIKR
notes: Fully human IgG1
[1]
  EC50: 2.9 nM
Cynomolgus monkey CCR6 [2]
  EC50: 1.5 nM
Mouse CCR6 [3]
  binding result: no binding
[4]
  EC50: 2.9 nM
Cynomolgus monkey CCR6 [5]
  EC50: 1.5 nM

B12: MSM-R610 IgG1 (antibody, V domains shown)
VH: EVQLLESGGGLVQPGGSLRLSCAASGFTFTGSSMSWVRQAPGKGLEWVSLISSRGSYTYYADSVKGRFTISRDNSKNTLYLQMNSLRAEDTAVYYCARSYAYQYRGLDYWGQGTLVTVSS
VL: EIVLTQSPGTLSLSPGERATLSCRASQSVSSSYLAWYQQKPGQAPRLLIYGASSRATGIPDRFSGSGSGTDFTLTISRLEPEDFAVYYCQQNRTSPITFGQGTKVEIKR
notes: Fully human IgG1; also called MSM R610.46
[1]
  EC50: > 100 nM
Cynomolgus monkey CCR6 [2]
  EC50: > 100 nM
Mouse CCR6 [3]
  binding result: no binding
[4]
  EC50: > 100 nM
Cynomolgus monkey CCR6 [5]
  EC50: > 100 nM

B13: MSM-R625 (antibody, human IgG1, kappa, V domains shown)
VH: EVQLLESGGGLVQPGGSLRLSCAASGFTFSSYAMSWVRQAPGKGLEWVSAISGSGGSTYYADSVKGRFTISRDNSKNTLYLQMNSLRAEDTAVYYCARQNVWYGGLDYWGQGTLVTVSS
VL: EIVLTQSPGTLSLSPGERATLSCRASQSVSSSYLAWYQQKPGQAPRLLIYGASSRATGIPDRFSGSGSGTDFTLTISRLEPEDFAVYYCQQYSYAPITFGQGTKVEIKR
Mouse CCR6 [8]
  binding result: no binding
[9]
  EC50: 1.6 nM
Cynomolgus monkey CCR6 [10]
  EC50: 2.6 nM

B14: MSM-R622 IgG1 (antibody, V domains shown)
VH: EVQLLESGGGLVQPGGSLRLSCAASGFTFSKNSMSWVRQAPGKGLEWVSLITSYSGYTYYADSVKGRFTISRDNSKNTLYLQMNSLRAEDTAVYYCARSYAYQYRGLDYWGQGTLVTVSS
VL: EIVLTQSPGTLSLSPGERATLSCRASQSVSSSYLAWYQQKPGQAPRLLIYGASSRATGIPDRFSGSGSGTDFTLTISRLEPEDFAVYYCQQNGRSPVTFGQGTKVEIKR
notes: Fully human IgG1; also called MSM R622.46
[1]
  EC50: 1.9 nM
[4]
  EC50: 1.9 nM
